Reference: the DeepSol protein solubility set

Experiment: soluble on expression in E. coli; label from the status in PepcDB or PDB records

Sequence	soluble on expression in E. coli
MGSDKIHHHHHHMPLYLKNHSYGEYVFDWAWANAYERAGHDYYPKLLSAIPFSPVTGKRLLAQTSEQRALLVSTALAIVRKGNAGAGMSSLHCLFPLEHEAREMERAGMMLRCGVQFHWKNRPGRGYENFEDFLGGMSYSKRKKIRQERRKVQDLGIHFEWLSGNDMDEDRWNFFIDCYNNTYREHHSRPYLNLEFFLRLGKSMPENILLILALQNKKPIGVAFNIHNSHTLYGRYWGAREFVPGLHFETCYYQAIQYCIANGLSLFEGGAQGEHKLARGFLPVRTWSAHWLVHSEFAAAIEGYLERETRDIDRYIHALEESAPFRKDARESE	not soluble
MKKIAIFGSAFNPPSLGHKSVIESLSHFDLVLLEPSIAHAWGKNMLDYPIRCKLVDAFIKDMGLSNVQRSDLEQALYQPGQSVTTYALLEKIQEIYPTADITFVIGPDNFFKFAKFYKAEEITERWTVMACPEKVKIRSTDIRNALIEGKDISTYTTPTVSELLLNEGLYRETLSGK	soluble
MSLSETASAENLLGAYLKDRRTRLDAAAFGLSGSRRRTPGLRREEVAQRANISPTWYTWLEQGRGGAPSADVLDRIARALMLTDVEREHLFLIGLGRPPEVRYQASDGVSPRLQRVLDALAFSPALVRTATWDVVAWNRAATAVLTDYGAIPPGQRNILRFIFCDPRVRAAQYDWDSVARFVVAAFRADAARAGAVSHVADFVDELCRTSPEFAALWRDNDVRHHGDGTKRLRHPVHGTMSFEYSSFNVEGRSDLSMIVYNPATPEDADRIRTLLAERADEGHHHHHH	soluble
MTQAVMLQGTASDVGKSVLAAGLCRIFYQDGLRTAPFKSQNMALNSGITPDGKEMGRAQIFQAEAAGITPDVRMNPVLLKPTSDRQAQVVLMGKVATNMDAVSYHDYKPRLREQILAVYNSLAQEYDVIVLEGAGSPAEINLRDRDIVNMGMAEMAQCPVILVADIDRGGVFAAIYGTLALLHKQERDRVKGVIINKFRGDVALLYSGIEQIESLTGVPVLGVMPWLDVDLEDEDGVALQNDKYRGNAPRDITIAIVQLPHISNFTDFNALAAQPDVRIRYIRRPEALTDVDLVILPGSKNTLSDLAWLRESGMADAVLQTHRQGVPVMGICGGYQMLGDTIVDEVESGLGTQPGLGLLNTITRFAQDKTTTQVNATMSGELPGWLAAAAGLPVRGYEIHMGETVLQEGCCTAMTLQKNGCSVADGAVTADGLAFGTYLHGLFDSDAFTRAVVNGLRARKGLAPWETTFCYADHKARQFDLLAEAMRQHIDIDKIYTIMQQHQEPV	not soluble
EGLDYLTAPNPPSIREELCTASHDTITVHWISDDEFSISSYELQYTIFTGQANFISLYNSVDSWMIVPNIKQNHYTVHGLQSGTRYIFIVKAINQAGSRNSEPTRLKTNSQPFK	soluble
MKIPSVFMLEQQKASLQLHVKQLANEAIQKSAPSAWFEVLYAEAQGDTTQIPWAKLTPHPYLQEWLTNHQPFPSGQKALVIGCGLGDDAEALAKLGFAVTAFDISPTAIAWCGQRFPNSNVNYIVADLLAIPPQWHLAFDFVFECRNIQALPLNIRAEVITSIASVVAPDGTLLLINRVRLEHHHHHH	not soluble
MGSDKIHHHHHHANTQTNIQLERTSSDIEHALYYASFAANSHNTQSWKVNLDPKQKRLGVFLNNKRSLNVVDPNNRELYISIGCYIQSLKKSFEAYGYNVSISNIAPSKENKYQVVLINYQKLKNNKINNKQLDIIQKRHTDKRKFQKKPINRTVVSSLIKKYNNVYYYAKGSKTFKYLQKGSLAAAAKQYKNQDFLKEQGKWLRFSNQEVEKKQDGISGDMLGLNPIIKTLYYLTSNHKNATSNNFVKQSKNTLINQVENCAGFFVITGEQNISKWIAVGEKSQAFWYDCVRNNIAVQPISAMIEIPSYNQKLQQNLGKSQPVQLILRVGYVNSYGKNVGPRRNLKDYITVKK	not soluble
MGSDKIHHHHHHMTLLDRFDGGFARDGEDIIAGSRIEDARIHNRRLVFETIFQRGPISRVEISAIVGLKPQTISSITRELLEQELIVEAGRSSGLRGQPQIYLEANAEAGFSIGVHLDQNQCHILVFDLKRQERARKSMRCDTANPDVTVRMLAQTITTLLHDNALPAERIWGLGLVLPTFGSDVYDFDFSMRHWEAWRDASFAEDLQRLTGFAVLVENDGTAAAIGERLHRHDAQEASFAYFYIGHGAGAGLIIDGYPFKGVGGNAGEIGLLPILGLGANPVWPDNPSSAVQGGVLSIGGLAAACGLSEQSMDEQSILSLLERRDHRLMDWLASAASVLRDVCAVIEVMFDPGFIAVGGALPRALVERLVDRAYPLRPTPSARRDRALPRLLPATLIEDAAVTGAAMLPIFVTTSHNFRHLYFRQILADDRS	not soluble
MSLSSVNCIEQTTEWTACSKSCGMGFSTRVTNRNRQCEMLKQTRLCMVRPCEQEPEQPTDKKGKKCLRTKKSLKAIHLQFKNCTSLHTYKPRFCGVCSDGRCCTPHNTKTIQAEFQCSPGQIVKKPVMVIGTCTCHTNCPKNNEAFLQELELKTTRGKMEGHHHHHH	not soluble
MSLTPAPDLTLGTAVDWRFAATVGRRLARPGPPSTDYTRRQVIDELAGAATKAEPLVRQVTGLLTDGADDGRVPAARIVDRPEWIAAAAESMRVMMNGTERPRGFLTGRVTGAQTGAVLAYVSSGILGQYDPFATDRGAGAGCLLLVYPNVIAVERQLRIEPSDFRLWVCLHEVTHRVQFTANPWLPGYMSQALALLTRDTGDDLGQVLSRLADYARNRGNTASQADANSTGILGLVRAVQSEPQRQALDQLLVLGTLLEGHADHVMDAVGPMAVPSVATIRRRFDERRHRKQPPLQRLLRALLGLDAKLSQYTRGKAFVDQVVGRVGMARFNAVWTGPETLPLPVEIEEPQRWIDRVLEGHHHHHH	soluble
MGKRLKSNARKSAVNKLVKKTDNRIKEEQRVIRTPKVDEQELKLVRAPKISSAMFMKYNTQLGPPFHVIVDTNFVNFAVKNRIDMFQGFMDCLFAKTIVYATDCVLAELEKVRRFKIALKVLKDPRVQRLKCEHKGTYADDCLVQRVTQHKCYIVATCDRDLKRRIRKIPGVPIMYIVNHRFSIERMPDAYGAPMN	not soluble
MGSDKIHHHHHHMARHALMRTELLPTFGMPDKKVDGFIARIRERHPKMIFGYPSAMSHIVPCAEQRGVRFDDLGIKVVFCTSERLYNHQRETIVRLFGCPVANGYGGRDAGFIAHECPNGNMHVITEDIVVEIIGEAGRVLPHRQSGKIVVTHLATRDYPFIRYRTGDIASLSEETCSCGRGLPLLTDIQGRNTDFVVAAEGTVLHGLALIYVVHDLNEVRTFKIVRKNREHTRILLAPEAGGDMTGIDTIIIDGFRCRLGAKVTVKFVDAVLAEKSGKFCYVASHVVLH	not soluble
TKDFSWNTDFTFSFYRDKWKERDENWSPNPYDMYNAPLRGYYMYLSDGLIQPGEEVSWMPGALPGQVKLKDIDGYAYNED	not soluble
MGSDKIHHHHHHLQKYLSILRNSPFFKGLADNEILSILHCVNATTISKKRDSYIFRAGDITEVMGIVVSGCVLIIQEDIWGHRNILSKCHAGDFFGEPYAASQRAVLNISVVADEDCEIILLNVKRLLITCPTACEHHQKLIRNLVSVLANKILILNDKITHVGKRTTRDKLLSYLSAESIRHSSLSFDIPFDRQQLADYLCIDRAAMSTEISKLQKEGFIKTNRNHFELQLSIIKKKNYTI	not soluble
MKDLIIIGAGQAGLTMGYYLKQEGYNFLLLEAGNRVGDSWRNRYDSLQLFTPRSYSSLPGMALIGEKNEFPYKDEIATYLEEYARHFQLPVQLQTEVLKIRKEKGIFELHTSTEILQTKKVIIATGGFQQPFIPSVSANLSSHVFQIHSSQYKSPSQIPQGKVLVVGGGNSGMQIAVEFAKTHEVTMSISHPLTFLPLHFFRKSIFNWLEKLGLLYAEVSTKRGKWFQKRKDPLEHHHHHH	soluble
MFTLRELPFAKDSMGDFLSPVAFDFHHGKHHQTYVNNLNNLIKGTDFEKSSLFAILTKSSGGVFNNAAQIYNHDFYWDCLSPKATALSDELKGALEKDFGSLEKFKEDFIKSATTLFGSGWNWAAYNLDTQKIEIIQTSNAQTPVTDKKVPLLVVDVWEHAYYIDHKNARPVYLEKFYGHINWHFVSQCYEWAKKEGLGSVDYYINELVHKKL	soluble
MGSSHHHHHHSSGLVPRGSHMLPKPDQINQIIVLLNIYHGKKKPSEIAREMDITLQGVIYHMKNLRRDGLIDEENRITKKGFDFLYRQLSDMREFITSNILDLDSLMVWEAIAAEDITAGSTVHLRMKGGYLYAFLSGGGATGRAVNDSQAGGLVGITNLSGLIDVNFGKLSIIVIPDSIDGGISERLKKAAADLSPALFAAMGEAGYVALKNIGIEPDIEYSALQAAFEASVRGQNVVLVTSRRRLHYSMAEIPQLENRYNPVKANITDLS	soluble
MGSDKIHHHHHHMDFKELFPEVITKQEVKQSEDYIIVEQDGHVLHFPKSSLTKRELYLLQMTPSLEDASSVDSQNPWYRYLVEGRGRLPQSHSAVQFIFIEHQFTLSEELKDFLSPLVINVETIMTINQTQSVMILNQDNFFNATELLTDILPTIENDFNTRLRCYFGNSWTHLQAVDWKELYEEEYKLFTLFLSHKAEQHYCRFPKMALWALANQSPMPSIKAKCLQHILDTSDTSAIIKALWQEQGNLAKTAKALFIHRNSLQYKLDKFTQSSGLNLKILDDLAYAYLISMDT	not soluble
MKSFDGHNDLLARLWLSEHPDPVGMFLKGQLPGHLDFARCQQAQFAGGLFAIFVPPFDYVKNNHPYKLRKSAQAGFDTQDIHHIVFTQLDYIKQIASRSDRRIQICLSVEDIQFCLQQDIMAVVIHLEGAEVLDSEFGVLEQLHARGLRSIGPLWNLPNQFGHGLQASFPHSPDTGLGLTDQGKALIQLCSEKRIMIDVSHMNEKAFWDTAKISELPLIATHSNVHQLCPQPRNLTDAQLEAIQASQGCVGVNFDTAFLRPDGQRNAATSLDLILEHIEYLMHKLGEDQVAFGSDFDGGFISDHLKDVTGLIHLQQAFERRGYSQALQEKLCHQNWLSALQRVWHPAC	not soluble
MGSDKIHHHHHHMGILYLKEHTSCYNYTKCIREGFLYHKFCDIEMDEEINETDSILFVIEGELEMSCNGKKMKLLAGNMICFGRGSRFKIHSRGKGSIVIAQFDNAVQSCEKISFAQLNSLDSPGDKIYPLEIRDRLHLFLKLLISYLEDGANCVHFHETKLKELFWSIRFYYTKTEQAAFFHPILGNDYDFKKKIFNNYRNARTVKELAGLCGTPLSSFKRKFLKEFREPAGNWLQKQINNIIKYKLADEDIPIGNIAEELHFSSHPQFCRYCKRNFGYTPGEWRKLLKNRDKTPGKLSGRV	not soluble
QIQLVQSGPELKKPGETVKISCKASGYTFTDYSMYWVKQAPGKGLKRMGWINTETGEPTYADDFKGRFALSLDTSASTAYLHISNLKNEDTATYFCARGLDSWGQGTSVTVSSAKTTPPSVYPLAPGCGDTTGSSVTLGCLVKGYFPESVTVTWNSGSLSSSVHTFPALLQSGLYTMSSSVTVPSSTWPSQTVTCSVAHPASSTTVDKKLEPS	soluble
MSLANAFGKEKNIKEFYALKGVSFEISKGECVGIIGHNGAGKSTLLKLLTGVAFPTSGEIEINGRLASMLELGSGFNPELTGMENIYFNGSLNGLTKEEIDGKLKDILEFADIGNFIEQPVKNYSSGMFARLAFAVAINVDPDILIVDEILSVGDVGFQVKCMEKFNEFKKKGKTILYVSHGLGTVKKFCDRAIWLQKGEVVDDGNSVIVVERYYNLNFNPANIEQLKDHKSDIINSIAVKSNTKNVEYLEKLDLEVEYDLISNDLKDPNIVLEFRKTDYEPGTTRGNDQFVCGINSKDNIKNIPFNLGVNKLKVSLNKVNLVAGVYYIDFVLRDGEEEVYRKINGYSFTLNDKYRGEGFLILGHSWGNEGHHHHHH	not soluble
